Data reported in the DeepSol protein solubility set.

experiment: soluble on expression in E. coli; label from the status in PepcDB or PDB records

Sequence	soluble on expression in E. coli
MRKLAAFLGLVGLLSLGLAQSAQEILDRVEKNLSTPWQATVQGRIQGPGGEEELLARVYALPQARLFRVEFLKPGSLEGNFTVITEKEVWNYLYLTNQLVISPREKAKIQGLGFAPQGLGDLKALSEQVDLRLEGEVRLPEGMAWKLVGRSKENQGFAAMELYILKADPRPLRFVFLDEKGKVLADLKVVEFKRTNLTEAQLKRYPKDAQVVRR	soluble
MRQIQSIRLIDVLELAFGVGYKEETTSQFSSDQPSQVVLYRGEANTVRFAYTNQMSLMKDIRIALDGSDKSLTAQIVPGMGHVYEGFQTSARGIFTMSGVPESTVPVANPNVQTKYIRYFKVIDDMHNTMYKGTVFLVQPQAWKYTMKSVDQLPVDDLNHIGVAGIERMTTLIKNAGALLTTGGSGAFPDNIKVSINPKGRQATITYGDGSTDIIPPAVLWKKGSVKEPTEADQSVGTPTPGIPGKFKRDQSLNEHEAMVNVEPLSHVVKDNIKVIDEKSTGRFEPFRPNEDEKEKPASDVKVRPAEVGSWLEPATALPSVEMSAEDRLKS	not soluble
MKGFIDDANYSVGLLDEGTNLGNVIDNYVYEHTLTGKNAFFVGDLGKIVKKHSQWQTVVAQIKPFYTVKCNSTPAVLEILAALGTGFACSSKNEMALVQELGVSPENIIFTSPCKQVSQIKYAAKVGVNIMTCDNEIELKKIARNHPNAKVLLHIATEDNIGGEDGNMKFGTTLKNCRHLLECAKELDVQIIGVKFHVSSACKEYQVYVHALSDARCVFDMAGEFGFTMNMLDIGGGFTGTEIQLEEVNHVISPLLDIYFPEGSGIQIISEPGSYYVSSAFTLAVNIIAKKVVENDKFSSGVEKNGSDEPAFVYYMNDGVYGSFASKLSEDLNTIPEVHKKYKEDEPLFTSSLWGPSCDELDQIVESCLLPELNVGDWLIFDNMGADSFHEPSAFNDFQRPAIYFMMSFSDWYEMQDAGITSDAMMKNFFFAPSCIQLSQEDSFSTEA	soluble
MGSDKIHHHHHHMKILIDATAALMGGGQTYLINLLNYTEILEHDIIILSPKKLTLPSIQNIHRIDVDKSLENPFIRAVWMRRYLPDLIKERKVDILFCPGGLITKGIPSNCVKVTMFRNMIPFDLKQRVKYPLGYMRFRNWLLERLLLDSMIEADLVIFISEYASKVIKKRAKKKLRNTVIIPHGLSAEFRIFDKKAIPRPQWLPAEDYLLYVSILDVYKAQIELIQGFALLKKWRQTSEKLLLVGPDEERSYYTKMIKKEIVKHGLQNDVIITGPVPYNELPALYYHAKVNIFASECENCPNILLEALGAGRPTLVSDCEPMPEFGGDSVEYFDPTSPEDFANSIIRFIDDENKMKELAKKAGERSLLFDWEKVGRLTWQSIENIYNSKTINM	not soluble
MAFSSRKEISSRNSERSTDDTACLRMSENGVALWCEKNVFVQENQPFVDYLPYFCSKVIGTLSIGKNLCGSFSGEKQSIPDKTIMVNIKI	not soluble
MSLGNAFIALDFETANGKRTSICSVGMVKVVNNEIVESFYTLVNPFDYFSQTNIEVHGITPEDVIDAPSFEYVFPYMMQFIDKLPVVAHNAAFDMNVLHQSLKQLNIETPSMIYFCSYQLAKRTIDAYRYGLKHLMKHYKLDFHGHHDALNDAKACAMITFRLLKHYDNLQSMLQIYGKNLKEGHHHHHH	not soluble
MSFVQPGLAQEKERMWRTLTVSGRGVESIPTTLSEVSLGVEIQGKTAQEVQHEAARRSSAVVALLKSRNVEKLQTTGIRLNPVYSYNNNVQRITGYAASNTVNFRIATEKAGTLLDEAVKAGATQINGISFVATDEAIASARQQALKEATQDAQQQASAVFSSLGFQAKEVVSIQVGGATAPPPPILYRAEAAKLSSADASTPVIGGEQQVEASVTLQISYLEHHHHHH	soluble
MKGERLDKVLARLGLGSRKEVARLVRQGKVRVLGQVVKDPGFRVPEGAALEVEGRPLEVRRHLHVLLHKPPGFVTSRTEGPSVYALLQGFPTRDLSPVGRLDKDAEGLLLFTTDGLLLHRLTHPRHKVAKRYLVHLERPVGPKDQEAFREGILLDGKKTLPAELTPLEDPTWAEVVLKEGRFHQIKRMFRARGNRVLRLKRLALGPLELGDLPPGKARPLTEAEEKALYAAVGLGGEDPEDEV	soluble
MGHHHHHHSHMIHIVQAKDKGQTARATKFLALDKCLPHRDFLQILEIEHDPSAPDYLEYDIEWLTILRATDDLINVTGRLWNMPESNGLHARWDYSATEEGMKEVLEKLNHDLKVPCNFSVTAACYDPSKPQTQMQLIHRINPQTTEFCAQLGIIDINVRLQKSKEEHHVCGEYEEQDDVESNDSGEDQSEYNTDTSALSSINPDEIMLDEEEDEDSIVSAHSGMNTPSVEPSDQASEFSASFSDVRILPGSMIVSSDDTVDSTIDREGKPGGTVESGNGEDLTKVPLKRLSDEHEPEQRKKIKRRNQAIYAAVDDDDDDAA	not soluble
MLDLQISKKTVDPLKRPPHSVEAEQSIIGGLMLDNQVWDKVSNKLCETDFYRTEHRILFRAISALAKKDQPFDVVTLLDALKTRNELDDAGGEAYLFELANNTPSVANVTAYADIVREKSVQRQLIAVATEIADSAYNPAGREVPELLDMAETKVFAIGEQTASDGGPENIKSILVRAVEKIDALYHNGDAITGLATGLSDLDEMTSGLQPSDLIIVAGRPSMGKTTLVMNMAEHAAIKAGKPVLVFSMEMPADSLAMRMMSSLGRIDQHRIRTGKLDDNDWPRVTSAVHMLSEAPLFIDDTPALSPGEMRARARRLAKEHGSLGLIVVDYLQLMKVPGFNADNRTAEISEISRSLKSLAKELQVPVIALSQLNRSLEQRADKRPVMSDLRESGAIEQDADLICFIYRDEVYNEDSPDKGTAEIIVAKQRNGPIGKVRVAFLGKYTRFEDLAFNGYQGVE	not soluble
GMPIIIDKDLPARKVLQEENIFVMTKERAETQDIRALKIAILNLMPTKQETEAQLLRLIGNTPLQLDVHLLHMESHLSRNVAQEHLTSFYKTFRDIENEKFDGLIITGAPVETLSFEEVDYWEELKRIMEYSKTNVTSTLHICWGAQAGLYHHYGVQKYPLKEKMFGVFEHEVREQHVKLLQGFDELFFAPHSRHTEVRESDIREVKELTLLANSEEAGVHLVIGQEGRQVFALGHSEYSCDTLKQEYERDRDKGLNIDVPKNYFKHDNPNEKPLVRWRSHGNLLFSNWLNYYVYQETPYVL	soluble
MSDLKYTVTADVLNVRSGAGTGHSVISKVKQGQVLQVIGQENGWFKVTVNGQTGYVSGDFVTTGGKTGTTVQQGTGTYTVNVSSLNVRTGPSTSHTVLGSVNKGKTVQVVSEVQDWFKINFNGGTGYVSKDFVTKGGSALEHHHHHH	soluble
MGSDKIHHHHHHSDDDDEKMVNPVPQTTFTGENGLQLTYNGAPMPGKKVTFTPDATNAQKATLRLEGEFDLNGILGKAKSAAAREDVSMPTAPGVLPGSPVVTLPVDLTINGDQCSFAGTSETDYCTFSYKGEVSAGAMELALSEVKLKNAKLAGMTWKLKPYNQEVEEQDPVRLVWESEKGIPLFGSFEMPVESVLKIALRMPLIAVGAENKVSATDMLGTVLKDVTFMEDGNIVATYKDAANGGTEWTKSPVNLAQYVVENDNQIKVFLNPAAIIAAVNNAGRAIDVQTVIQQAIQILYPMLVNGVPVAFEQTEDALSVYLNTELLLPLLKTLVVPLLSDEEVVAMLVELMKKDPDFGEMAGLAEPMLKAFPEIIESTTKVEIGLNFVK	not soluble
MGSDKIHHHHHHACGNSDGAGEDPGVPYLAKKGEPVDGVRIGWDYGTIRQLATRGGYPRSIRLQDNTVVAVYENYDTGYEMRCSTDEGSTWGDPVILFPIHSITNDKGTARINIANSEIIQLANGDLLAACNYRPQTPEITPFAIAVRRSTDNGVTWSDPQIIYEAEPRFSDGCWEPSFLQLPNEEVQVYFANEGPYTHSNEQEISMMTSVDNGKTWGGYKTVCFRAGSRDGMPVSKVVGDEIVCVIEDCGFVTFKPYTVRTKLSDNWSSPVLADSPNRAMALGEPVEDWIYMGAPYLGVLPTGETLLSYQVDDIRHDDQLGDRLPYSTMEVAIGDKNARNFVRRTRPFPVPAGKHAVWPSVAVWDANTIAALATSNYQGGTEAPFFMKGHVMRDLEVNSSDIVNYPIFIGHTGICNLRLGVGKDADNLYITCKVKDGELYSGGQGTQKGSGVFIYLDTKNECLKEPAEGVYKVWCSYKGDITVWQGNKGKWENSELEGLQITPSVVSGGYELAFTIPLNRSFNKDAMRLCATLSTKTYTETLVHSNADRSCTWMKMNLGGH	not soluble
SSKIILIPSNIPQEFPEASISNPERLRILAQVKDFIPHESTIVIDKVPTITSEQSTYINICIFNLLEACSSRVLVPGTLVNIDAFYDGESINPVDIYEVNGANFTMENIQLIDEMNNSIGKFN	soluble
MAEEFVTLKDVGMDFTLGDWEQLGLEQGDTFWDTALDNCQDLFLLDPPRPNLTSHPDGSEDLEPLAGGSPEATSPDVTETKNSPLMEDFFEEGFSQEIIEMLSKDGFWNSNFGEACIEDTWLDSLLGDPESLLRSDIATNGESPTECKSHELKRGLSPVSTVSTGEDSMVHNVSEKTLTPAKSKEYRGEFFSYSDHSQQDSVQEGEKPYQCSECGKSFSGSYRLTQHWITHTREKPTVHQECEQGFDRNASLSVYPKTHTGYKFYVCNEYGTTFSQSTYLWHQKTHTGEKPCKSQDSDHPPSHDTQPGEHQKTHTDSKSYNCNECGKAFTRIFHLTRHQKIHTRKRYECSKCQATFNLRKHLIQHQKTHAAKTTSECQECGKIFRHSSLLIEHQALHAGEEPYKCNERGKSFRHNSTLKIHQRVHSGEKPYKCSECGKAFHRHTHLNEHRRIHTGYRPHKCQECVRSFSRPSHLMRHQAIHTAEKPYSCAECKETFSDNNRLVQHQKMHTVKTPYECQECGERFICGSTLKCHESVHAREKQGFFVSGKILDQNPEQKEKCFKCNKCEKTFSCSKYLTQHERIHTRGVKPFECDQCGKAFGQSTRLIHHQRIHSRVRLYKWGEQGKAISSASLIKLQSFHTKEHPFKCNECGKTFSHSAHLSKHQLIHAGENPFKCSKCDRVFTQRNYLVQHERTHARKKPLVCNECGKTFRQSSCLSKHQRIHSGEKPYVCDYCGKAFGLSAELVRHQRIHTGEKPYVCQECGKAFTQSSCLSIHRRVHTGEKPYRCGECGKAFAQKANLTQHQRIHTGEKPYSCNVCGKAFVLSAHLNQHLRVHTQETLYQCQRCQKAFRCHSSLSRHQRVHNKQQYCL	soluble
MSLIKCVCLVIEEQEKLLLVQSRNREKYYFPGGKIDIGETYKQALQRELNEELQLDIPESSLIYMHTVVGEAYPQKNMKTELNCFYTTADIDWSTLVPSQEITDLQWIDKKDEHKIAPAVITWIEEQQHFKNIEREGHHHHHH	soluble
MEQQLTIEMIADAFSYDITGFDCGEEALNTFLKEHLKRQHDGQILRGYALVSGDTVPRLLGYYTLSGSCFERGMLPSKTQQKKIPYQNAPSVTLGRLAIDKSVQGQGWGEMLVAHVMRVVWGASKAVGIYGLFVEALNEKAKAFYLRLGFIQLVDENSNLLFYPTKSIEQLFTDDES	not soluble
MGSDKIHHHHHHMSHSTDLSALARWMAADFSNQAQAFENPPFYAHIRVAIRPLDQAKFGDRLLFLEQAYDFMLQRPYRLRVLKLKVVEDHIEIENFKVKDEEKFYGAARDLGKLAQLTPADLEPMHGCDMIVEWTGTSFKGEVQPGRQCRVMRDGKETYLENSFEVSETGLISLDRGYDPETNERVWGSVAGAFHFVRWQSFADEVSF	not soluble
MQDRQKAQDYRALLLADTPLIDVRAPIEFEQGAMPGAINLPLMMDDERAAVGTCYKRQGADAALALGHRLVCGDIRQQRLEAWKAAYQRFPNGYLCCARGGQRSHIVQRWLQETGIDCPLIEGGYKALRQTAIQATWQLAQKPILLIGGCTGSGKTQLVRQQPNGVDLEGLARHRGSSFGRTLNPQLSQASFENKLAVELLKINARQTLKRWVLEDEGRTIGANHLPECLRERMAQAPIAVVEDPFALRLERLREEYFIRMHHDFTHAYGDEAGWQAYSEYLHHGLFAIRRRLGLQRFAELTDTLDRALAEQLSSGSTDGHMAWLVPLLNEYYDPMYRYQLEKKAANIVFRGTWQDVANWLKAQ	not soluble
